Biological target: CFP-cA1-cA1, two chicken ASIC1 subunits concatenated in a dimer with an N terminal CFP (chicken) (UniProt Q1XA76)
Test: FRET or BRET; FLIM-FRET: lifetime of the CFP donor at the plasma membrane of single live HEK293T ASIC1 KO cells co-transfected at varying cDNA ratios; multi-photon excitation at 860 nm, single exponential fits

FRET efficiency (1:15 ratio): 15%
Substance: C4 YFP, chicken ASIC1 with YFP at the C4 position of the C tail (from UniProt Q1XA76 1-527) (natural protein)
